Values belong to the substance of their own block, whether it stands above or below them.
How the values were obtained:
human Fzd8 (human) = human Fzd8 (human) (UniProt Q9H461); test: cell-based or functional assay
[1] = biological target: recombinant Wnt3a protein (R&D systems); test: cell-based or functional assay

UniProt Q9H461, sequence (Q9H461 28-694): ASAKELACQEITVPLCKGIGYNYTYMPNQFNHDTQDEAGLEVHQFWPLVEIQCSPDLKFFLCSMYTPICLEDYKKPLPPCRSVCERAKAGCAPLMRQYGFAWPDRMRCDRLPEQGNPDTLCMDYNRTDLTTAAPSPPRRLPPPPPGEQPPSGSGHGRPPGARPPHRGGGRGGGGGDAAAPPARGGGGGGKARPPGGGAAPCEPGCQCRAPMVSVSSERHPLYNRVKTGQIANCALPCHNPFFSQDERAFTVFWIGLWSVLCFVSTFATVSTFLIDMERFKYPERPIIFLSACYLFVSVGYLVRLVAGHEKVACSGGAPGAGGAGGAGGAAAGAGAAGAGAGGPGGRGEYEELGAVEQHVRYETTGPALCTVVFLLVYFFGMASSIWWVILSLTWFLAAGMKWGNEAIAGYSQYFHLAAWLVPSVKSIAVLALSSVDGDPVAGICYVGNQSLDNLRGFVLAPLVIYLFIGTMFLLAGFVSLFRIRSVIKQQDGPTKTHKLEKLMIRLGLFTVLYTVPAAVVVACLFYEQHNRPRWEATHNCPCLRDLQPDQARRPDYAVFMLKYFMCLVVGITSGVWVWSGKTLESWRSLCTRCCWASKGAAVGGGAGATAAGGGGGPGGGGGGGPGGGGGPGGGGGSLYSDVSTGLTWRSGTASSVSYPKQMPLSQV
recombinant Wnt3a protein (R&D systems), sequence (P27467 19-352): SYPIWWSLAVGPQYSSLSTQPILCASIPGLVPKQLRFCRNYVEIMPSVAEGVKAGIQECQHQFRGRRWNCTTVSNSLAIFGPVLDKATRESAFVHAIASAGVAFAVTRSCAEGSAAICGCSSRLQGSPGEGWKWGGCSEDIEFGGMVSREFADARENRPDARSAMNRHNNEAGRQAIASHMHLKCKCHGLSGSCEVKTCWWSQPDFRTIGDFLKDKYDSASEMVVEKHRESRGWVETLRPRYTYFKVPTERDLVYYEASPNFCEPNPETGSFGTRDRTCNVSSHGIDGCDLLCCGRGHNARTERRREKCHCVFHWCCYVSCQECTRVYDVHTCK

TCF/LEF reporter (TOPFlash) luciferase activity, normalized to Renilla luciferase (human Fzd8 (human)): 10.4 fold
Substance: recombinant Wnt3a protein (R&D systems) (ligand)

ND50, inhibition of Wnt3a-induced TCF reporter luciferase activity in Fzd8:CHOK1 cells [1]: 0.027 µg/mL
Substance: murine Fzd8 CRD Fc fusion (R&D systems) (from UniProt Q61091 28-173)

Wnt8a mediated SOX9 mRNA reduction in primary chondrocytes, rescue by Fzd8 siRNA (quantitative PCR) (human Fzd8 (human)): 52%
Substance: human Wnt8a (from UniProt Q9H1J5 25-351) (ligand)
